From US20050123549A1 (IMMUNOGEN, published 2005)

Columns and labels:
[1] = biological target: T1, Muc1 mucin carrying the CA6 sialoglycotope (human, UniProt P15941 24-1255, sialylated O-linked carbohydrate carrying the CA6 epitope; positions not stated); test: flow cytometry on HeLa cells
T1 construct: whole, on cells; Target of DS6 on CA6-positive human cell lines (flow cytometry) and in their lysates (dot blots, immunoprecipitation); also called CA6 antigen; DS6 antigen

[2] = biological target: T1, Muc1 mucin carrying the CA6 …; test: flow cytometry on Caov-3 cells
[3] = biological target: T1, Muc1 mucin carrying the CA6 …; test: flow cytometry on HPAC cells, apparent Kd
Description: (§1) Human cell lines were obtained from the American Type Culture Collection (ATCC) with the exception of OVCAR5 (Kearse et al., Int. J. Cancer 88(6):866-872 (2000)), OVCAR8 and IGROV1 cells (M. Seiden, Massachusetts General Hospital). All cells were grown in RPMI 1640 supplemented with 4 mM L-glutamine, 50 U/ml penicillin, 50 μg/ml streptomycin (Cambrex Bio Science, Rockland, Me.) and 10% v/v fetal bovine serum (Atlas Biologicals, Fort Collins, Colo.), referred hereafter as culture media. Cells were maintained in a 37° C., 5% CO₂ humidified incubator.
(§2) Cells ([…]) were incubated, on ice for 3-4 h, with serially diluted concentrations of the DS6 antibody prepared in FACS buffer (2% goat serum, RPMI) into 96-well plates. The cells were spun down in a table top centrifuge at 1500 rpm for 5 min at 4° C. After removing the media, the wells were then refilled with 150 μl of FACS buffer. The wash step was then repeated. FITC-labeled goat anti-mouse IgG (Jackson Immunoresearch) was diluted 1:100 to FACS buffer and incubated with the cells for 1 h on ice. The plate was covered in foil to prevent photobleaching of the signal. After two washes, the cells were fixed with 1% formaldehyde and analyzed on a flow cytometer.

[4] = biological target: T1, Muc1 mucin carrying the CA6 …; test: flow cytometry on MCF7 cells, apparent Kd
[5] = biological target: T1, Muc1 mucin carrying the CA6 …; test: flow cytometry on HeLa cells, apparent Kd
Description: as §2

[6] = biological target: T1, Muc1 mucin carrying the CA6 …; test: flow cytometry on BT-20 cells, apparent Kd
Description: as §1, §2

[7] = biological target: T1, Muc1 mucin carrying the CA6 …; test: flow cytometry on MCF-7 cells, apparent Kd
Description: as §1, §2

[8] = biological target: T1, Muc1 mucin carrying the CA6 …; test: flow cytometry on CaOV3 cells, apparent Kd
[9] = biological target: T1, Muc1 mucin carrying the CA6 …; test: flow cytometry on BT-20 cells, apparent Kd; remark: listed apart in the source
[10] = biological target: T1, Muc1 mucin carrying the CA6 …; test: flow cytometry on BT-483 cells, apparent Kd
Description: as §2

[11] = biological target: T1, Muc1 mucin carrying the CA6 …; test: flow cytometry on BT-549 cells, apparent Kd
Description: as §1, §2

[12] = biological target: T1, Muc1 mucin carrying the CA6 …; test: flow cytometry on BxPC-3 cells, apparent Kd
Description: as §1, §2

[13] = biological target: T1, Muc1 mucin carrying the CA6 …; test: flow cytometry on CAMA-1 cells, apparent Kd
Description: as §1, §2

[14] = biological target: T1, Muc1 mucin carrying the CA6 …; test: flow cytometry on Hs766T cells, apparent Kd
Description: as §1, §2

[15] = biological target: T1, Muc1 mucin carrying the CA6 …; test: flow cytometry on Caov-3 cells, apparent Kd
[16] = biological target: T1, Muc1 mucin carrying the CA6 …; test: flow cytometry on Caov-4 cells, apparent Kd
Description: as §2

[17] = biological target: T1, Muc1 mucin carrying the CA6 …; test: flow cytometry on HPAF-II cells, apparent Kd
[18] = biological target: T1, Muc1 mucin carrying the CA6 …; test: flow cytometry on ZR-75-1 cells, apparent Kd
[19] = biological target: T1, Muc1 mucin carrying the CA6 …; test: flow cytometry on T-47D cells, FITC anti-mouse IgG
Description: (§3) The fluorescence of cell lines incubated with the DS6 primary antibody and FITC conjugated anti-mouse IgG(H+L) secondary antibodies was measured by flow cytometry.
as §2

[20] = biological target: T1, Muc1 mucin carrying the CA6 …; test: flow cytometry on Caov-3 cells, FITC anti-mouse IgG
Description: as §3, §2

[21] = biological target: T1, Muc1 mucin carrying the CA6 …; test: flow cytometry on MDA-MB-231 cells, apparent Kd
Description: as §1, §2

Kd [1]: 0.62 nM | Kd [2]: 2.02 nM | Kd [3]: 23.5 nM | Kd [4]: 2.89 nM | Kd [5]: 0.694 nM | Kd [6]: 0.914 nM | Kd [7]: 2.89 nM | Kd [8]: 5.48 nM | Kd [9]: 0.914 nM | Kd [10]: 13.7 nM | Kd [11]: 1.05 nM | Kd [12]: 5.26 nM | Kd [13]: 2.33 nM | Kd [14]: 2.32 nM | Kd [15]: 5.48 nM | Kd [16]: 4.04 nM | Kd [17]: 2.81 nM | Kd [18]: 4.3 nM | Kd [19]: 2.59 nM | Kd [20]: 1.85 nM | Kd [21]: 1.46 nM
B1: murine DS6 anti-CA6 monoclonal antibody (antibody, IgG1, V domains shown)
VH: QAYLQQSGAELVRSGASVKMSCKASGYTFTSYNMHWVKQTPGQGLEWIGYIYPGNGATNYNQKFKGKATLTADPSSSTAYMQISSLTSEDSAVYFCARGDSVPFAYWGQGTLVTVSA
VL: QIVLTQSPAIMSASPGEKVTITCSAHSSVSFMHWFQQKPGTSPKLWIYSTSSLASGVPARFGGSGSGTSYSLTISRMEAEDAATYYCQQRSSFPLTFGAGTKLELKR
notes: Whole murine monoclonal IgG from the DS6 hybridoma (ATCC PTA-4449); the 3' heavy chain cloning primer was BamIgG1 and the light chain primer was kappa; also called DS6 antibody; muDS6
